Test system: GST-p21

| Substance | in vitro kinase assay: 32P-labeling of GST-p21, SDS-PAGE and autoradiography |
| --- | --- |
| GFP-tagged kinase dead (K67M) mutant of PIM-1 (GFP-PIM-DN) | this activity was abolished in the Pim-DN construct |
| GFP-tagged wild-type 34 kDa human PIM-1 (GFP-PIM-wt) | Pim-wt overexpression phosphorylates p21 |

From US20160324936
